B1: C-terminal RRM domain of Pla1 (Pla1RRM, residues 352-566), purified [S. pombe] / Red1 residues 288-345 (Pla1 interaction region), purified [S. pombe] (parent)
chain 1: ISLPLLKQDDWLSSSKPFGSSTPNVVIEFDSDDDGDDFSNSKIEQSNLEKPPSNSENG
chain 2: DFFHRYKHYLTITAAAKTAEAQLKWAGLVESKLRHLVTRLELVDAIALAHPFNKGFDKVYNCSSEEEAQQVASGVTLEVAYESTDHEKLANDTVNEEKADNTESKADGSENGEKQIFPVYTTTCYIGLELEKKKGHPIKRLDISWPTQEFYELCKKWDKYDDTLMNVFIKNTKNTALPDEVFEPGEERPKATKKRSTADTAHSTEQLKRQKVSTA

Variants of: B1
Test: ITC
Details: with Red1 residues 288-345 (Pla1 interaction region)

Row | Kd [µM] | Variant
1 | 2.8 | chain 2 DFFHRYKHYLTITAAAKTAEAQLKWAGLVESKLRHLVTRLELVDAIALAHPFNKGFDKVYNCSSEEEAQQVASGVTLEVAYESTDHEKLANDTVNEEKADNTESKADGSENGEKQIFPVYTTTCYIGLELEKKKGHPIKRLDISWPTQEFYELCKKWDKYDDTLMNVFIKNTKNTALPDEVFEPGEERPKATKKRSTADTAHSTEQLEEQEVSTA [chain 2 K208E R209E K211E]
2 | 17.8 | chain 2 DFFHRYKHYLTITAAAETAEAQLKWAGLVESKLRHLVTRLELVDAIALAHPFNKGFDKVYNCSSEEEAQQVASGVTLEVAYESTDHEKLANDTVNEEKADNTESKADGSENGEKQIFPVYTTTCYIGLELEKKKGHPIKRLDISWPTQEFYELCKKWDKYDDTLMNVFIKNTKNTALPDEVFEPGEERPKATKKRSTADTAHSTEQLKRQKVSTA [chain 2 K17E]

Same assay, conditions: with C-terminal RRM domain of Pla1 (Pla1RRM, residues 352-566)

Row | Kd [µM] | Variant
3 | 17.9 | chain 1 ISLPLLKQDDWLSSSKPFGSSTPNVRIEFDSDDDGDDFSNSKIEQSNLEKPPSNSENG [chain 1 V26R]
